B1: HBS monoclonal antibody (antibody, V domains shown)
VH: VQLQQSGPELVKPGASVKMSCKASGYTLTDYVIGWVKQRTGQGLEWIGEVYPGSVYTSYNEKFKGKATLTADKSSNTAYMQLSGLTSDDSAVYFCAYDGYSPFDYWGQGTTLTVSS
VL: NIVMTQSPKSMSMSVGERVTLTCKASENVGTYVSWFQQKPGQSPKLLIYGASNRYIGVPDRFTGSGSATDFTLTISSVQAEDLAEYHCGQSYNYPHTFGGGTKLVIKR
B2: pre-S2 monoclonal antibody (antibody, V domains shown)
VH: QVQLQQPGTELVKPGTSVKLSCKASGYTFTSYWMHWVKLRPGQGFEWIGEINPSNGITNYNEKFKRKATLTVDKSSTTAYMQLSSLTFEDSAVYYCTIGYDYGSNYEAMDFWGQGTSVTVSS
VL: DIVMTQAAFSNPVTLGTSASMSCRSSKSLLHSNGITYLYWYLQKPGQSPQLLIYQMSNLASGVPDRFSSGGSGTDFTLRISRVEAEDVGVYYCAQNLELPWTFGGGTKLEIK

Columns and labels:
[1] = target: large surface protein of hepatitis B virus (LHBS), full-length (hepatitis B virus); assay: chemiluminescent sandwich ELISA on pooled HBsAg(+) sera; pre-S1 antibody coated, HBS antibody detecting (platform 2)
[2] = target: large surface protein of hepatitis B virus (LHBS), full-length (hepatitis B virus); assay: chemiluminescent sandwich ELISA on pooled HBsAg(+) sera; pre-S1 antibody coated, pre-S2 antibody detecting (platform 1)
[3] = target: pre-S region E. coli recombinant protein (hepatitis B virus); assay: chemiluminescent ELISA, serially diluted antigen coated, antibody 1:2000
Sequence of pre-S region E. coli recombinant protein (hepatitis B virus) (P03141 2-174): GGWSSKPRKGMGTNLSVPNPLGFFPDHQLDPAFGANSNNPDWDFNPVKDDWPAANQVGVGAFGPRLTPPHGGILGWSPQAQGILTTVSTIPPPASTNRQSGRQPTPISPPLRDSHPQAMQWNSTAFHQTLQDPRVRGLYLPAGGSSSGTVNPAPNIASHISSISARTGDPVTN

Row | Binder | limit of quantification (LOQ) [1] [ng/mL] | limit of quantification (LOQ) [2] [ng/mL] | limit of linearity (LOL) [3] [ng/mL] | limit of quantification (LOQ) [3] [ng/mL]
1 | B1 | 1.7 | – | – | –
2 | B2 | – | 13.5 | 1.56 | 0.04
